Series [1] addresses T1, IKKα-His (UniProt O15111).
T1 sequence: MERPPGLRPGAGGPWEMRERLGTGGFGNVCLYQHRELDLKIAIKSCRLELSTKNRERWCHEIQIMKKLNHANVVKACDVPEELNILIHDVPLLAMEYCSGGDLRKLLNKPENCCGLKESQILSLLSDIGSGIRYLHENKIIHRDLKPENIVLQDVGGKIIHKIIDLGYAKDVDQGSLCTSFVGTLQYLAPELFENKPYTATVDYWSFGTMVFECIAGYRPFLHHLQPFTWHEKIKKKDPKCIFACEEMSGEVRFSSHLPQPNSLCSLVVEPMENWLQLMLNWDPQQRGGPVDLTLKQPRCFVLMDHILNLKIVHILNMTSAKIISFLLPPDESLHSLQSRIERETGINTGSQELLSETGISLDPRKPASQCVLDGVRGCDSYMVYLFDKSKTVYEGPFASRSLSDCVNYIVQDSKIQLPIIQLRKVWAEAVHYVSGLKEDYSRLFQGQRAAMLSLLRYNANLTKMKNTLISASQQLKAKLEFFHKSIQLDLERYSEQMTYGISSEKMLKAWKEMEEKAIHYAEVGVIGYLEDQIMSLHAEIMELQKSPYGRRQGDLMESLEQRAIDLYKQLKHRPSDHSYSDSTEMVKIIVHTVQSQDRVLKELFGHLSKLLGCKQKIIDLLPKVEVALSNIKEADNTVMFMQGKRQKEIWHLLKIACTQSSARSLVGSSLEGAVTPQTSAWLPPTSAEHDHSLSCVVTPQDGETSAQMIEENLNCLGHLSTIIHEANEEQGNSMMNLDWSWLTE
Nature of the series: pull-down (in vitro RIP-qPCR). Particulars: SPR: 10 mM HEPES pH 7.4, 150 mM NaCl, 3 mM EDTA, 0.05% P20, 25 °C; pull-down: 25 mM HEPES pH 7.5, 150 mM NaCl, 0.05% NP-40, 10% glycerol, RT; EMSA: LightShift ….

For series [2], the target named is T1, IKKα-His. The series is described as follows: SPR. Particulars: SPR: 10 mM HEPES pH 7.4, 150 mM NaCl, 3 mM EDTA, 0.05% P20, 25 °C; pull-down: 25 mM HEPES pH 7.5, 150 mM NaCl, 0.05% NP-40, 10% glycerol, RT; EMSA: LightShift …. A general note: A gel shift assay detects complexes by their altered migration in electrophoresis.
Another series deals with T2, MBP-IKKα-6His (UniProt O15111 1-745).
T2 sequence: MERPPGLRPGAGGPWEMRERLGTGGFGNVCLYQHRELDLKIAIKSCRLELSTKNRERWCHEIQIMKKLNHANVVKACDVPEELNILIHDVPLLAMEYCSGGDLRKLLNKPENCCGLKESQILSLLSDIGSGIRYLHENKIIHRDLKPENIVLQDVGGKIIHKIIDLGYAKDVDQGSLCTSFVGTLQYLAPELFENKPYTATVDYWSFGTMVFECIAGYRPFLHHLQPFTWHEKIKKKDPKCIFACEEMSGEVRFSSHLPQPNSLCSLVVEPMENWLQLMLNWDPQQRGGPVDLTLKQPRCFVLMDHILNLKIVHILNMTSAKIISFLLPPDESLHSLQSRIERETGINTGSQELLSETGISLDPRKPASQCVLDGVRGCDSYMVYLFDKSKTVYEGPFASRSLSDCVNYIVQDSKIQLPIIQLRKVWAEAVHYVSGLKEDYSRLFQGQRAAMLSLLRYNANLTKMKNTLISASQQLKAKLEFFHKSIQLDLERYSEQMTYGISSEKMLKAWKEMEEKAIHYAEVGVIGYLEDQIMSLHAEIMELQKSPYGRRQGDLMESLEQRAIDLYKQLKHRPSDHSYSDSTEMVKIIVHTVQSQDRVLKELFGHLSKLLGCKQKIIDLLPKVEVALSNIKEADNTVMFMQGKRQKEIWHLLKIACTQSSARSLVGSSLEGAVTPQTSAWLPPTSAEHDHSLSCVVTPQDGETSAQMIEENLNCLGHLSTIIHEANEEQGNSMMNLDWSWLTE
Nature of the series: SPR; biotin RNA immobilized on NeutrAvidin chip, protein analyte; text gives 6.09 ± 1.08 nM; SPR: 10 mM HEPES pH 7.4, 150 mM NaCl, 3 mM EDTA, 0.05% P20, 25 °C; pull-down: 25 mM HEPES pH 7.5, 150 mM NaCl, 0.05% NP-40, 10% glycerol, RT; EMSA: LightShift kit, 22 °C, 25 min. Particulars: protein: recombinant; tags: N-term MBP (pMAL-c5X), C-term His6; chain copies: 2; label: 5' biotin; hairpin. For orientation: In SPR one partner is held on a chip, and binding of the other changes the refractive index at the surface.

The target of a further series is GST-NEMO (UniProt Q9Y6K9 1-419). Nature of the series: SPR; biotin RNA immobilized; SPR: 10 mM HEPES pH 7.4, 150 mM NaCl, 3 mM EDTA, 0.05% P20, 25 °C; pull-down: 25 mM HEPES pH 7.5, 150 mM NaCl, 0.05% NP-40, 10% glycerol, RT; EMSA: LightShift kit, 22 °C, 25 min. As to conditions: protein: recombinant; tags: GST; chain copies: 2; label: 5' biotin; hairpin.
GST-NEMO, sequence (Q9Y6K9 whole entry): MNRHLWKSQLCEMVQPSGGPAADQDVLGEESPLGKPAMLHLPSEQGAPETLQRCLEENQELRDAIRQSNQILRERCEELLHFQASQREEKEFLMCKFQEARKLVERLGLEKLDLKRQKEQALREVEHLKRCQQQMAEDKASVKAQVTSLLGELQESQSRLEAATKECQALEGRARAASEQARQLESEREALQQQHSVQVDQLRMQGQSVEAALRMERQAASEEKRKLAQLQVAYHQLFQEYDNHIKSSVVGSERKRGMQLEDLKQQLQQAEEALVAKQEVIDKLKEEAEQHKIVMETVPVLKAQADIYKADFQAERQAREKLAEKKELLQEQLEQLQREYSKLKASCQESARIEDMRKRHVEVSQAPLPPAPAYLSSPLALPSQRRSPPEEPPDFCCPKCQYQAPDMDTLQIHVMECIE

For “GGGAGAUUGGAAUAACUUGCAGUGUCUUGCAGUAUUGUGAAACCAGCAACUUGUUCACAAUUCUUCUGAAUUUCUUGGGAAAUUUGAAGUGGAGUACCUGUACCAACAUGAAAUGACACGAAUUUAAGUGACGCUCAACAACGAAAAGCAAAAAGAACCAAAGAGGAAGCAACUGAAACAACAUCUGGAUGUAUUUAAAAAUAUACAAUGCCUCCAAAAUCAGGUGUCAUUAAUGAAAAUUCUGAAGAAAUG [DRAIC 705-950]”, the binding result with IKKα-His [1] was “binds”. What is called Kd is the concentration at which binding is half-saturated. With “UUGGAAUAACUUGCAGUGCCAGCAACUUGUUCACAA [A+B DRAIC RNA]”, in the series with IKKα-His [2], the Kd was found to be 0.541 nM. For the molecule UUGGAAUAACUUGCAGUGCCAGCAACUUGUUCACAA (structured_RNA) [5'-biotin A+B DRAIC RNA], the Kd with MBP-IKKα-6His came out at 6.29 ± 1.08 nM. Further, the binding result with GST-NEMO is on record as “no binding”.

The values are drawn from publication PMC12205651, “A 36-base hairpin within lncRNA DRAIC, which is modulated by alternative splicing, interacts with the IKKα coiled-coil domain and inhibits NF-κB and tumor cell phenotypes”.
